Test results taken from patent publication US8703915B2, “Mutant proteins and methods for producing them” (Heptares Therapeutics Limited, priority 2009, dated 2014).
Entries after “also recorded” stand apart in the source; their conditions may differ.

How the values were obtained:
OX2 receptor = test: Thermostability of OX2 receptor bound to antagonist EMPA; type: physicochemical, human; details: bound to antagonist EMPA
Protocol: Transiently transfected mammalian cells expressing M4 were harvested about 40 hours post transfection and the receptors were solubilised in 50 mM Tris pH 7.5/250 mM NaCl/1% DDM/EDTA free protease inhibitor mix for 1 hour rotating at 4° C. The solubilised lysate was then cleared by centrifugation at 13000 rpm for 15 minutes at 4° C. The solubilised receptors were then purified on Ni-NTA beads and eluted with 100 mM histidine. The eluted receptor was used in radioligand binding assay. Thermostability of M4 was measured using 25 μL of purified receptor mixed with 95 μL of 12 nM [^3H]-NMS (final concentration of 10 nM). The sample was incubated for 60 min at 4° C., then 30 min at the specified temperature and then 30 min at 4° C. Receptor bound and free radioligand were separated using a 96-well plate gel filtration assay.
A tandem alanine and leucine scanning mutagenesis strategy was used to identify mutations that enhanced the thermostability of OX2 bound to the small-molecule antagonist EMPA.
Thermostability assays were preformed on partially purified receptors as described for M4, with the following amendments. Cell lysates were solubilised in 50 mM Tris pH7.4, 150 mM NaCl, 1% DDM supplemented with 1× complete EDTA free protease inhibitor cocktail (Roche). Radioligand binding reactions were set up using 1/10 volume eluted receptor mixed with 20 nM ^3H-EMPA (final concentration) per temperature point.

A2A receptor [1] = test: Thermostability of A2A receptor in ZM241385 antagonist-bound state, solubilised in DDM; type: physicochemical, human; details: ZM antagonist
Protocol: (§1) In order to stabilise an agonist-bound conformation, a systematic Alanine-scan was performed in order to identify mutations that may stabilise the A2A receptor bound to its full agonist NECA. In this A2A agonist-bound study, L2.46 (L48A) is the most stabilising single mutant. When NECA is bound to the solubilised receptor, removing the L48 side chain (in A2A-L48A) dramatically increases the thermostability of the ligand-receptor complex resulting in an increase of 14° C. over the wild type receptor in the detergent DDM (FIG. 5a). […] We evaluated the signalling property of the A2A receptor by over-expressing the receptor in CHO cells. A2A agonist stimulation triggers the signal transduction through the Gs-trimeric complex and increases the intracellular cAMP level. The increase in intracellular cAMP can be detected by and quantified by using an anti-cAMP Mab antibody competition assay. […] However the signalling efficacy is reduced to 30% (FIG. 6).
A2AR-(2-316) expression was carried out by using the pRG/III-hs-MBP E. coli expression vector and DH5α cells. Cells were grown at 37° C. in 2 L flasks containing 500 mL of 2×TY medium supplemented with Ampicillin (100 μg/mL) and glucose (0.2% w/v). At OD600≈0.7, IPTG and theophylline were added at final concentrations respectively of 0.5 mM and 100 μM, and the temperature was reduced to 20° C. […]

A2A receptor [2] = test: Thermostability of A2A receptor in NECA agonist-bound state, solubilised in DDM; type: physicochemical, human
Protocol: as §1
A2AR-(2-316) expression was carried out by using the pRG/III-hs-MBP E. coli expression vector and DH5α cells. Cells were grown at 37° C. in 2 L flasks containing 500 mL of 2×TY medium supplemented with Ampicillin (100 μg/mL) and glucose (0.2% w/v). At OD600≈0.7, IPTG and theophylline were added at final concentrations respectively of 0.5 mM and 100 μM, and the temperature was reduced to 20° C. After 22 to 24 hours, cells were harvested in aliquots of 14 mL, centrifuged for 30 min and stored at −20° C. Both 5HT2C and M4 receptors were transiently expressed in HEK293T cells using GeneJuice transfection reagent used according to the manufacturers guidelines.
An aliquot of E. coli cells expressing wild type or mutant A2AR-(2-316) (14 mL) was thawed on ice and cells were resuspended in 500 μL of buffer A (50 mM Tris HCl mM/pH 7.4; 0.4 M NaCl, 250 μg/mL lysozyme (Sigma), 1 mg/mL DNAse I (Sigma), supplemented with complete EDTA-free Protease inhibitor cocktail (Roche)) and incubated 1 hour at 4° C. Samples were then sonicated 1 min at 4° C. using a cup-horn sonicator. […]

A2A receptor [3] = test: cAMP functional assay (HTRF), NECA stimulation of CHO cells over-expressing A2A receptor; type: cell-based, human; details: intracellular cAMP, CHO cells
Protocol: as §1
(§2) This assay takes advantage of Homogeneous Time-Resolved Fluorescence (HTRF) using cAMP labeled with the dye d2 in presence of an anti-cAMP Mab labeled with Cryptate. The method is based on a competitive immunoassay between cAMP produced by cells and the cAMP labeled with the dye d2. CHO cells were grown using Glutamax Ham's F12, 10% FBS in 96-well plates, clear bottom and Black wall (Costar). Cells were seeded at a density of 12500 cells per well, grown overnight, washed with PBS and then transfected with 100 ng of pcDNA-3-A2A(2-316) pre-incubated with 0.3 μL of GeneJuice (Novagen) per well. After 48 hours of receptor expression, the medium was removed, the cells were washed in PBS then stimulated by using different NECA concentrations, in the presence of Rolipram (50 μM) and Adenosine deaminase in a total volume of 50 μL for 30 minutes. Dilution was realised in Hamf's F12/cAMP-d2 conjugate according to the manufacturer protocol, without serum. […] The plate was incubated at room temperature for 1 hour and then read using the Pherastar 96-well time-resolved fluorescence plate reader (Ex 340 nm; Em 665/620 nm).

A2A receptor [4] = target: T1, A2A receptor (Homo sapiens, UniProt P29274, L48A); test: as above; type: cell-based; details: cAMP, relative to A2A-WT
T1 construct: transfected with 100 ng of pcDNA-3-A2A(2-316) pre-incubated with 0.3 μL of GeneJuice; expressed in transfected cells; host or cells: CHO cells, transient
Protocol: as §1, §2

CRF1 = test: Thermostability of CRF1 bound to antagonist CP-376395, purified in DDM; type: physicochemical, human; details: antagonist-bound state (CP-376395), purified in DDM
Protocol: In order to stabilise CRF1 in the antagonist conformation, a systematic alanine-scan was performed to identify mutations that stabilise receptors bound to the antagonist ligand CP-376395. Mutating I2.58 to alanine (I163A) confers significant stabilisation in CRF1, increasing the thermal stability by 3.9 (±0.5)° C. (FIG. 15).
CRF1 receptors were transiently expressed in HEK293T cells on 10 cm plates using GeneJuice transfection reagent used according to manufacturers guidelines.
Cells expressing CRF1 were harvested in PBS approximately 40 hours post-transfection and re-suspended in 950 μl Re-suspension buffer (50 mM Tris-HCl, 150 mM NaCl, 2× Complete EDTA-free Protease inhibitor cocktail (Roche), pH7.5). Cells were incubated with 120 nM CP-376395 and 30 nM [^3H]-CP-376395 at 37° C. for 2 hours before transferring to ice for 5 minutes. The receptors were solubilised by the addition of 1% DDM and incubated at 4° C. for 1 hour with gentle agitation. Insoluble material was removed by centrifugation at 16000×g for 10 minutes at 4° C. The solubilised receptors were partially purified with Ni-NTA agarose (Qiagen). Ni-NTA resin was equilibrated in Equilibration buffer (50 mM Tris-HCl, 150 mM NaCl, 2× Complete EDTA-free Protease inhibitor cocktail (Roche), 0.025% DDM, pH7.5) and 400 μl of a 50:50 resin slurry was added to each sample. Resin slurries were incubated at 4° C. for 1 hour 30 minutes with gentle agitation to bind receptors. Resin slurries were then transferred to a batch column filter plate (Chromabond) and centrifuged at 1000×g for 1 minute, discarding the flow-through. Resin was washed twice with 1 ml of Wash buffer (50 mM Tris-HCl, 150 mM NaCl, 2× Complete EDTA-free Protease inhibitor cocktail (Roche), 0.025% DDM, 20 mM Imidazole, pH7.5) and then eluted in 1 ml of Elution buffer (50 mM Tris-HCl, 150 mM NaCl, 2× Complete EDTA-free Protease inhibitor cocktail (Roche), 0.025% DDM, 100 mM histidine, 30 nM [^3H]-CP-376395, 120 nM CP-376395, pH7.5) by resuspension at 4° C. for 30 minutes. Eluted samples were used directly in the thermostability assay. […]

B1: OX2WT: wild type human orexin 2 receptor (protein, UniProt O43614 1-444, looked up)
Orexin receptor type 2: MSGTKLEDSPPCRNWSSASELNETQEPFLNPTDYDDEEFLRYLWREYLHPKEYEWVLIAGYIIVFVVALIGNVLVCVAVWKNHHMRTVTNYFIVNLSLADVLVTITCLPATLVVDITETWFFGQSLCKVIPYLQTVSVSVSVLTLSCIALDRWYAICHPLMFKSTAKRARNSIVIIWIVSCIIMIPQAIVMECSTVFPGLANKTTLFTVCDERWGGEIYPKMYHICFFLVTYMAPLCLMVLAYLQIFRKLWCRQIPGTSSVVQRKWKPLQPVSQPRGPGQPTKSRMSAVAAEIKQIRARRKTARMLMIVLLVFAICYLPISILNVLKRVFGMFAHTEDRETVYAWFTFSHWLVYANSAANPIIYNFLSGKFREEFKAAFSCCCLGVHHRQEDRLTRGRTSTESRKSLTTQISNFDNISKLSEQVVLTSISTLPAANGAGPLQNW
OX2 receptor
  Tm: 28.47 °C

B2: A2A-L48A: human adenosine A2A receptor mutant, Leu 48 (L2.46) replaced by alanine (protein, UniProt P29274 1-412, looked up, variant L48A)
Adenosine receptor A2a: MPIMGSSVYITVELAIAVLAILGNVLVCWAVWLNSNLQNVTNYFVVSAAAADIAVGVLAIPFAITISTGFCAACHGCLFIACFVLVLTQSSIFSLLAIAIDRYIAIRIPLRYNGLVTGTRAKGIIAICWVLSFAIGLTPMLGWNNCGQPKEGKNHSQGCGEGQVACLFEDVVPMNYMVYFNFFACVLVPLLLMLGVYLRIFLAARRQLKQMESQPLPGERARSTLQKEVHAAKSLAIIVGLFALCWLPLHIINCFTFFCPDCSHAPLWLMYLAIVLSHTNSVVNPFIYAYRIREFRQTFRKIIRSHVLRQQEPFKAAGTSARVLAAHGSDGEQVSLRLNGHPPGVWANGSAPHPERRPNGYALGLVSGGSAQESQGNTGLPDVELLSHELKGVCPEPPGLDDPLAQDGAGVS
A2A receptor [1]
  antagonist binding: abolishes the binding of the antagonist; also recorded: no binding detected
A2A receptor [2]; NECA agonist-bound state (400 nM), solubilised in DDM
  Tm: 42.5±1.0 °C
A2A receptor [2]; NECA bound, detergent DDM
  increase in thermostability over the wild type receptor: 14 °C
A2A receptor [3]
  pEC50: 8.10±0.39
A2A receptor [4]
  signalling efficacy: 30%

B3: CRF1-WT: wild type human CRF1 receptor (protein, UniProt P34998 24-415, looked up)
Corticotropin-releasing …: SLQDQHCESLSLASNISGLQCNASVDLIGTCWPRSPAGQLVVRPCPAFFYGVRYNTTNNGYRECLANGSWAARVNYSECQEILNEEKKSKVHYHVAVIINYLGHCISLVALLVAFVLFLRLRSIRCLRNIIHWNLISAFILRNATWFVVQLTMSPEVHQSNVGWCRLVTAAYNYFHVTNFFWMFGEGCYLHTAIVLTYSTDRLRKWMFICIGWGVPFPIIVAWAIGKLYYDNEKCWFGKRPGVYTDYIYQGPMILVLLINFIFLFNIVRILMTKLRASTTSETIQYRKAVKATLVLLPLLGITYMLFFVNPGEDEVSRVVFIYFNSFLESFQGFFVSVFYCFLNSEVRSAIRKRWHRWQDKHSIRARVARAMSIPTSPTRVSFHSIKQSTAV
CRF1
  Tm: 26.8 °C
